Laboratory results published in patent US20210395381A1 (OSSIANIX, published 2021).

What was measured:
recombinant human TfR-1 = biological target: T1, recombinant human TfR-1 (human, UniProt P02786 89-760); assay: phage ELISA
T1 construct: extracellular domain; also called hTfR1; human transferrin receptor-1
Method: (§1) After the third round of selection, instead of pooling bacterial colonies, individual phagemid clones were grown in 1 ml of 2TY medium containing glucose and ampicillin in 96-well blocks and used to rescue the phages. After an overnight culturing, bacteria were spun down and an aliquot of the phage supernatant was sent for Sanger sequencing (Genewiz); VNAR CDR3 sequences were identified using BioEdit (a sequence alignment editor). Another aliquot was blocked with 2.5% milk for phage ELISAs. High-binding ELISA plates (Greiner) were coated with 1 μg/ml of recombinant human or mouse TfR-1. The plates were then blocked with 2.5% milk in PBST. Blocked phages were added to the blocked plates and the VNAR-phage clones binding to the antigens were detected with HRP-labelled anti-M13 coat protein antibodies (Sino Biological), and chromogenic TMB substrate (KLM)

recombinant mouse TfR-1 = biological target: T2, recombinant mouse TfR-1 (mouse, UniProt Q62351 89-763); assay: phage ELISA
T2 construct: Bought recombinant protein; also called mTfR1
Method: as §1

T1 sequence (P02786 89-760): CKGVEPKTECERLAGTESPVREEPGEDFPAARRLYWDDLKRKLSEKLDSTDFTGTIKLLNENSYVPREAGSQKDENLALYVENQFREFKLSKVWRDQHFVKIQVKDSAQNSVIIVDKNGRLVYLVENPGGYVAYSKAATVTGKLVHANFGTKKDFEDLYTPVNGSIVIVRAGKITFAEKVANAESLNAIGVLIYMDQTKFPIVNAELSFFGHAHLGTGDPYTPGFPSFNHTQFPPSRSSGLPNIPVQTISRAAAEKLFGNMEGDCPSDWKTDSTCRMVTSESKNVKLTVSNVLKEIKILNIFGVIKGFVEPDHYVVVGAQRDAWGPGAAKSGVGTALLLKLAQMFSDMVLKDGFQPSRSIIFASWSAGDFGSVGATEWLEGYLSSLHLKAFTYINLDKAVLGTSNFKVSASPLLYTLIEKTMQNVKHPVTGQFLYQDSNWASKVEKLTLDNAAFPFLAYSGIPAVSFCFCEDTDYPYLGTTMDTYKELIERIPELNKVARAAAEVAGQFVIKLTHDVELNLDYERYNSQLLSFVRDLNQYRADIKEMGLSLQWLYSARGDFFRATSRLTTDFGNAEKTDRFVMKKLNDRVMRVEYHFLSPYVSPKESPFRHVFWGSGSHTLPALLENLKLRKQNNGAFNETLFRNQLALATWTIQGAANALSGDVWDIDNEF
T2 sequence (Q62351 89-763 limits assumed): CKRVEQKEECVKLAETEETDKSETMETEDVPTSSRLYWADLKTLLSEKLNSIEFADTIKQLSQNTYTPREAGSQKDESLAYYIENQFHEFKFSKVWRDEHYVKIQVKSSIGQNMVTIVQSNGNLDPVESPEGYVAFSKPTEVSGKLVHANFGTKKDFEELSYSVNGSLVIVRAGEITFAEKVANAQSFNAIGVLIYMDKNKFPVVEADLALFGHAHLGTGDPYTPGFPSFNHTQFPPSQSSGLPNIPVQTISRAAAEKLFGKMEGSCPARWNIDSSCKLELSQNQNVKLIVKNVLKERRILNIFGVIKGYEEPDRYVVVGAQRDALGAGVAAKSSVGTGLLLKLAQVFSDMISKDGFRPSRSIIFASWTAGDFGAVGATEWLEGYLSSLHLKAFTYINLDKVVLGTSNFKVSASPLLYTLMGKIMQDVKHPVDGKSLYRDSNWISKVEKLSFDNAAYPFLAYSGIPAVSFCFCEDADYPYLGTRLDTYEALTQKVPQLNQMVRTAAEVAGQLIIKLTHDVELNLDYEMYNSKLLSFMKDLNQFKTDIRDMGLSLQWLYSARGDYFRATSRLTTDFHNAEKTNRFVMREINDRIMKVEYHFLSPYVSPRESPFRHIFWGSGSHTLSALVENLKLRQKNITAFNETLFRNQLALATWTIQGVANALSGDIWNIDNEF

Binder	binding result (recombinant human TfR-1)	binding result (recombinant mouse TfR-1)
Clone 30 (VNAR, VNAR on phage) VNAR: ARVDQTPQTITKETGESLTINCVLRDSNCALSSTLWYRTKSGSRNEESISKGGRYVETVNSGSKSFSLKINDLTVEDSGTYRCNVWFADYYWFQYDVYGGGTAVTVNA	binds	binds
Clone 26 (VNAR, VNAR on phage) VNAR: ARVDQTPQTITKETGESLTINCVLRDSNCALSSTLWYRTKSGSRNEESISKGGRYVETVNSGSKSFSLKINDLTVEDSGTYRCNVCMGVTCNHVPDVYGGGTVVTVNA	binds	binds
Clone 27 (VNAR, VNAR on phage) VNAR: ARVDQTPRSVTKETGESLTINCVLRDASYALGSTCWYRKKSGSTNEESISKGGRYVETVNSGSKSFSLRINDLTVEDSGTYRCNVSRIGQYLCQARSDVYGDGTAVTVNA	binds	binds
Clone 13 (VNAR, VNAR on phage) VNAR: ARVDQTPQTITKQTGESLTINCVLRDSNCALSSTYWYRKKSGSTNEESISLGGRYVETVNSGSKSFSLRINDLTVEDSGTYRCNVRRLQAWGSCRGGDVYGGGTVVTVNA	binds	binds
Clone 28 (VNAR, VNAR on phage) VNAR: ARVDQTPQTITKETGESLTINCVLRDSICALSSTHWYRKKSGSTNEESISKGGRYVETVNSGSKSFSLRINDLTVEDSGTYRCNVRTAQGTLCGDVSDVYGDGTAVTVNA	binds	binds
Clone 16 (VNAR, VNAR on phage) VNAR: ARVDQTPQTITKETGESLTINCVLRDSNCALSSTYWYRKKSGSTNEENISKGGRYVETVNSGSKSFSLRINDLTVEDSGTYRCKVQSAQGMGLNGCKPGRVDVYGDGTAVTVNA	binds	binds
Clone 25 (VNAR, VNAR on phage) VNAR: ARVDQTPRSVTKETGESLTINCVLRDSICALSSTYWYRKKSGSTNEESISKGGRYVETVNSGSKSFSLKINDLTVEDSGTYRCNVFTEMRGRCWAWGVDVYGDGTAVTVNA	binds	binds
Clone 21 (VNAR, VNAR on phage) VNAR: ARVDQTPRVTKETGESLTINCVLRDNNCALSTTYWYRKKSGSTNEENISKGGRYVETVNSGSKSFSLRINDLTVEDSGTYRCNVYMTACSNDMDVYGGGTVVTVNA	binds	binds
Clone 19 (VNAR, VNAR on phage) VNAR: ARVDQTPQTITKETGESLTINCVLRDSNCALSSTYWYRKKSGSTNEESISKGGRYVETVNSGSKSFSLRINDLTVEDSGTYRCNVGQAQRLRSNVDDVYGGGTVVTVNA	binds	binds
Clone 3 (VNAR, VNAR on phage) VNAR: ARVDQTPQTITKETGESLTINCVLRDSNCALPSTYWYRKKSGSTNEESISKGGRYVETVNSGSKSFSLRINDLTVKDSGTYRCNVVQEPYSCKGRDDVYGGGTAVTVNA	binds	binds
Clone 2 (VNAR, VNAR on phage) VNAR: ARVDQTPQTITKETGESLTINCVLRDSNCELSSTYWYRKKSDSTNEASISKGGRYVETVNSGSKSFSLKINDLTVEDSGTYRCNVFTSDSYDLGDVYGGGTVVTVNA	binds	binds
Clone 29 (VNAR, VNAR on phage) VNAR: ARVDQTPQTITKETGESLTINCVLRDSNCALSSTLWYRTKSGSRNEESISKGGRYVETVNSGSKSFSLRINDLTVEDSGTYRCNVQQGCESYNWMVDVYGGGTAVTVNA	binds	binds
Clone 18 (VNAR, VNAR on phage) VNAR: ARVDQTPQTITKETGESLTINCVLRDSNCALSSTYWYRKKSDSTNEESISKGGRYVETVNSGSKSFSLRINDLTVEDSGTYRCKVCTGMSCPCLGRRQTDVYGGGTAVTVNA	binds	binds
Clone 12 (VNAR, VNAR on phage) VNAR: ARVDQTPRSVTKETGESLTINCVLRDASYELGSTCWYRKKSGSTNEESISKGGRYVETVNSGSKSFSLRINDLTVEDGGTYRCGAWSRLSSSWGCDVGLQCMGCWDLWAACGDGTAVTVNA	binds	binds
Clone 20 (VNAR, VNAR on phage) VNAR: ARVDQTPRSVTKETGESLTINCVLRDSNCALPSTYWYRKKSGSTNEESISKGGRYVETVNSGSKSFSLRINDLTVKDSGTYRCNVKWDCRYQCICVSADVYGDGTAVTVNA	binds	binds
Clone 31 (VNAR, VNAR on phage) VNAR: ARVDQTPQTITKETGESLTINCVLRDSNCALSSTYWYRKKSDSTNEENISKGGRYVETVNSGSKSFSLKINDLTVEDSGTYRCNVQPLFCDLWLDVYGGGTVVTVNA	binds	binds
Clone 14 (VNAR, VNAR on phage) VNAR: ARVDQTPQTITKETGESLTINCVLRDSNCALPSTYWYRKKSGSTNEESISKGGRYVETVNSGSKSFSLRINDLTVKDSGTYRCNVMVFQVSGDYSRLEDVYGGGTVVTVNA	binds	binds
Clone 22 (VNAR, VNAR on phage) VNAR: ARVDQTPQTITKETGESLTINCVLRDSNCALSNLYWYRKKSGSTNEESISLGGRYVETVNSGSKSFSLRINDLTVEDSGTYRCNVQQQSSGTFYDVYGGGTAVTVNA	binds	binds
Clone 11 (VNAR, VNAR on phage) VNAR: ARVDQTPQTITKETGESLTINCVLRDSNCALPSTYWYRKKSGSTNEESISKGGRYVETVNSGSKSFSLRINDLTVEDSGTYRCNVQWLWSFSCLPCVEDVYGGGTVVTVNA	binds	binds
Clone 23 (VNAR, VNAR on phage) VNAR: ARVDQTPQTVTKETGESLTINCVLRDSNCDLSRTYWYRKKSGSTNEESISKGGRYVETVNSGSKSFSLRINDLTVEDSGTYRCNVGGDLCGDQRDVYGGGTAVTVNA	binds	binds
Clone 15 (VNAR, VNAR on phage) VNAR: ARVDQTPRSVTKETGESLTINCVLRDASYELGSTCWYRKKSGSTNEESISKGGRYVETVNSGSKSFSLRINDLTVEDGGTYRCGAPRWQMGGQWCDGGTAACRSGMAEVAACGDGTAVTVNA	binds	binds
Clone 17 (VNAR, VNAR on phage) VNAR: ARVDQTPQTITKETGESLTINCVLRDSNCALSNLYWYRKKSGSTNEESISLGGRYVETVNSGSKSFSLRINDITVEDSGRYRCNVYNFFTYQCRWFQSDVYGDGTAVTVNA	binds	binds
Clone 24 (VNAR, VNAR on phage) VNAR: ARVDQTPQTITKETGESLTINCVLRDSNCALPSTYWYRKKSGSTNEESISKGGRYVETVNSGSKSFSLRINDLTVKDSGTYRCKVGPRCMGPNWQSYSCDVYGGGTVVTVNA	binds	binds
